Tests used:
[1] = molecular target: microtubules polymerized from porcine brain tubulin (taxol-stabilized) (porcine) (UniProt P02550); assay: single-molecule TIRF microscopy; rhodamine-labelled taxol-stabilized microtubules held on the surface by anti-beta-tubulin; eGFP-DRG1 at 0.08, 0.4, 4, 40 nM in BRB80 assay buffer with 1 mM GTP, 25 °C; residence times from kymographs, not corrected for bleaching
[2] = molecular target: microtubules polymerized from porcine brain tubulin (taxol-stabilized) (porcine) (UniProt P02550); assay: co-sedimentation; 1 µM recombinant DRG1 with different concentrations of taxol-stabilized microtubules; Coomassie quantified with ImageJ, binding curve fitted

B1: eGFP-DRG1 (Xenopus laevis DRG1 with N-terminal eGFP) (natural protein)
chain: MSGTLARIAEIEAEMARTQKNKATAYHLGLLKARLAKLRRELITPKGGGGGGPGEGFDVAKTGDARIGFVGFPSVGKSTLLSNLAGVYSEVAAYEFTTLTTVPGVVRYKGAKIQLLDLPGIIEGAKDGKGRGRQVIAVARTCNLILIVLDVLKPLGHKKIIENELEGFGIRLNKQPPNIGFKKKDKGGINLTATCAQSELDNDTVKSILAEYKIHNADITLRSDATADDLIDVVEGNRVYIPCIYVLNKIDQISIEELDIIYKVPHCVPISAHHRWNFDDLLEKIWDYLQLVRIYTKPKGQLPDYTSPVVLPCSHTAAEDFCTKIHKNLIKEFKYALVWGSSVKHNPQKVGKDHVLEDEDVIQIVKK
residence time, diffusive population, 4 nM eGFP-DRG1 [1]: 2.2 s | residence time, diffusive population, 40 nM eGFP-DRG1 [1]: 2.6 s | residence time, immobile fraction, 0.08 nM eGFP-DRG1 [1]: 12 s | residence time, immobile fraction, 0.4 nM eGFP-DRG1 [1]: 12.4 s | residence time, immobile fraction, 4 nM eGFP-DRG1 [1]: 11.1 s | residence time, immobile fraction, 40 nM eGFP-DRG1 [1]: 5.4 s

B2: recombinant Xenopus laevis Developmentally regulated GTP binding protein 1 (DRG1), full length (natural protein)
chain: B1 chain
Kd [2]: 470 nM

Reference: PMC5577222
